Assay results published in PMC10516938, “Conformational dynamics of cohesin/Scc2 loading complex are regulated by Smc3 acetylation and ATP binding” (Nature Communications, 2023).
Residue numbers refer to the chain shown, from its start.

T1: Smc3^QQ K1004C (S. cerevisiae, UniProt P47037 1-1230, K112Q | K113Q | K1004C)
T1 construct: Smc3, S. cerevisiae; source: S. cerevisiae W303, late G1 arrested cells, whole-cell extract
T1 sequence (looked up): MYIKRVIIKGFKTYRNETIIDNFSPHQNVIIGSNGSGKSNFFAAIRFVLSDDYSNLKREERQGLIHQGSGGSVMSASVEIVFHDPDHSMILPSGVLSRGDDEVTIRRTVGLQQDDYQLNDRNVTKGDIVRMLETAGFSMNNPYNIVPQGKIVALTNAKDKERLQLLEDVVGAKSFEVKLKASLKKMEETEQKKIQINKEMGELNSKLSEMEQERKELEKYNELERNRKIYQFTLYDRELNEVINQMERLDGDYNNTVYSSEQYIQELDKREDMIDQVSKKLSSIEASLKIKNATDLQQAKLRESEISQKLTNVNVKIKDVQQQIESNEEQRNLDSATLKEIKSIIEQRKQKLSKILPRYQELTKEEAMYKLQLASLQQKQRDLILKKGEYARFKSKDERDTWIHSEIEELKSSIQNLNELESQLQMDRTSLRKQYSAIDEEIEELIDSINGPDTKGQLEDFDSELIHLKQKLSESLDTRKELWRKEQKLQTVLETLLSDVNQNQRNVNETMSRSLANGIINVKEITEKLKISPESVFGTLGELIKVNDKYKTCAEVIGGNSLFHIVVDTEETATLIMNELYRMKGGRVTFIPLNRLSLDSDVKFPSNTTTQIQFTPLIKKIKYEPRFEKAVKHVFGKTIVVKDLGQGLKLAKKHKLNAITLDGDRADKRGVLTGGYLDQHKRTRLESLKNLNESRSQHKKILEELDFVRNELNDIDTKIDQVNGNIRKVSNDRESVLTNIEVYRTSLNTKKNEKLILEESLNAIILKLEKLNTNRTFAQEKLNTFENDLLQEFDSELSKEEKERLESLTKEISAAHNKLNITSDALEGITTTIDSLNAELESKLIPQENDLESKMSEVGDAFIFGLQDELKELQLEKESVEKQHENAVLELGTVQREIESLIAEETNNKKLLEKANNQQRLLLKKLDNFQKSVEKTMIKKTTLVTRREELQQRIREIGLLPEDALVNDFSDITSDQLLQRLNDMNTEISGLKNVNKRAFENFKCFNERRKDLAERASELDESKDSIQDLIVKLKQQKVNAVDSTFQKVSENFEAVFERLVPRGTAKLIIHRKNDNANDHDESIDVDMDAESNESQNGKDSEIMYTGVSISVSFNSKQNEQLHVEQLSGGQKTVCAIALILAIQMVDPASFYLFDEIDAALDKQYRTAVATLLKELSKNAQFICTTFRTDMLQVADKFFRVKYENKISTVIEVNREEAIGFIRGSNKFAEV

T2: Smc3^QQ Q67C (S. cerevisiae, UniProt P47037 1-1230, Q67C | K112Q | K113Q)
T2 construct: Smc3, S. cerevisiae; source: S. cerevisiae W303, late G1 arrested cells, whole-cell extract
T2 sequence (looked up): T1 sequence (looked up) with Q67C, C1004K

B1: Scc2 D369C (natural protein, S. cerevisiae, UniProt Q04002 1-1493, looked up)
chain: MSYPGKDKNIPGRIIEALEDLPLSYLVPKDGLAALVNAPMRVSLPFDKTIFTSADDGRDVNINVLGTANSTTSSIKNEAEKERLVFKRPSNFTSSANSVDYVPTNFLEGLSPLAQSVLSTHKGLNDSINIEKKSEIVSRPEAKHKLESVTSNAGNLSFNDNSSNKKTKTSTGVTMTQANLAEQYLNDLKNILDIVGFDQNSAEIGNIEYWLQLPNKKFVLTTNCLTKLQMTIKNITDNPQLSNSIEITWLLRLLDVMVCNIKFSKSSLKMGLDDSMLRYIALLSTIVLFNIFLLGKNDSNLHRESYIMEPVNFLSDLIESLKILTIEYGSLKIEFDTFQEALELLPKYIRNGPFLDDNVTAKLVYIFSCLLMNNDIEATTNIQFQSFWDNVKRISSDILVSLFGSFDQQRGFIIEELLSHIEKLPTKRIQKKLRKVGNQNIYITDFTFTLMSMLENINCYSFCNQMKDIAPENIDLLKNEYKKQEEFLFNIVEHINDTILERFFKNPSALRYVIDNFVQDLLLLISSPQWPVTEKILSSLLKRLLSVYSPSMQVSANIETICLQLIGNIGSTIFDIKCSTRDHEDNNLIKMINYPETLPHFFKSFEECIAYNETIKCRRSATRFLWNLRLGTILILEEYTKDAKEQIITVDNELKKILEQIKDGGLGPELENREADFSTIKLDYFSILHAFELLNLYDPYLKLILSLLAKDKIKLRSTAIKCLSMLASKDKVILSNPMVKETIHRRLNDSSASVKDAILDLVSINSSYFEFYQQINNNYNDDSIMVRKHVLRINEKMYDETNDIVTKVYVIARILMKIEDEEDNIIDMARLILLNRWILKVHEVLDQPEKLKEISSSVLLVMSRVAIMNEKCSQLFDLFLNFYLLNKEAHSKEAYDKITHVLTILTDFLVQKIVELNSDDTNEKNSIVDKQNFLNLLAKFADSTVSFLTKDHITALYPYMVSDEKSDFHYYILQVFRCTFEKLANFKQKFLYDLETTLLSRLPKMNVREIDEAMPLIWSVATHRHDTARVAKACSSCLSHLHPYINKANNEEAAIVVDGKLQRLIYLSTGFARFCFPKPSNDKIAFLQEGETLYEHITKCLLVLSKDKITHVIRRVAVKNLTKLCGNHPKLFNSRHVLHLLDKEFQSDQLDIKLVILESLYDLFLLEERKSVRNTGVNSTLSSNSILKKKLLKTNRVEFANDGVCSALATRFLDNILQLCLLRDLKNSLVAIRLLKLILKFGYTNPSHSIPTVIALFASTSQYIRHVAYELLEDLFEKYETLVFSSLSRGVTKAIHYSIHTDEKYYYKHDHFLSLLEKLCGTGKKNGPKFFKVLKRIMQSYLDDITDLTSTNSSVQKSIFVLCTNISNITFVSQYDLVSLLKTIDLTTDRLKEVIMDEIGDNVSSLSVSEEKLSGIILIQLSLQDLGTYLLHLYGLRDDVLLLDIVEESELKNKQLPAKKPDISKFSAQLENIEQYSSNGKLLTYFRKHVKDT
notes: Scc2, S. cerevisiae; source: S. cerevisiae W303, in vivo, whole-cell extract
B2: Scc2 T1175C (natural protein, S. cerevisiae, UniProt Q04002 1-1493, looked up)
chain: B1 chain with C369D, T1175C
notes: as for B1

How the values were obtained:
[1] = target: T1, Smc3^QQ K1004C; experiment: cross-linking; in vivo BMOE cross-link of cysteine pairs in yeast cells arrested in late G1 by non-degradable Sic1(9m); Scc1-PK immunoprecipitated, western blot, band intensities quantified; details: partners not purified
[2] = target: T2, Smc3^QQ Q67C; experiment: as above; details: partners not purified

Binder | crosslinking efficiency relative to wild type [1] | crosslink relative to wild-type Smc3 [2]
B1 | ~10% | –
B2 | – | ~10%
